Data reported in patent US20080207449A1 (CROPDESIGN N V, published 2008).

What was measured:
[1] = molecular target: T1, pGBTE2Fb-Rb: GAL4 DNA-binding domain fusion of AtE2Fb amino acids 1-385 (lacking the Rb-binding domain) (Arabidopsis); assay: yeast two-hybrid, growth on His- minimal medium; legend: +, positive interaction
T1 construct: also called E2F3 N-terminal; E2Fb (=E2F3) N-terminal domain
Protocol: (§1) Different combinations between bait (pGBTE2Fa226-356, pGBTE2Fb-Rb, or pGBTE2Fb 1-127, SEQ ID NO:207) and prey constructs were transformed into yeast cells and assayed for their ability to grow on His⁻ minimal media after 3 days of incubation at 30° C. Bait plasmids co-transformed with empty pAD-GAL424 and prey plasmids co-transformed with empty pGBT9 were assessed along as controls for the specificity of the interaction.
(§2) Different combinations between AtE2Fs bait and AtDPs prey constructs were tested for growth on His minimal media. −, no interaction; +, positive interaction; NT, not tested.

[2] = molecular target: T2, pGBTE2Fa226-356: GAL4 DNA-binding domain fusion of AtE2Fa amino acids 226-356 (Arabidopsis); assay: as above
T2 construct: also called E2F5 dimerisation domain; E2Fa (=E2F5) dimerization domain
Protocol: as §1, §2

[3] = molecular target: T3, empty pGBT9 (GAL4 DNA-binding domain alone) (UniProt P04386 1-147); assay: yeast two-hybrid, growth on His- minimal medium; empty bait vector control; legend: -, no interaction
T3 construct: empty bait vector, control for specificity; also called pBGT9
Protocol: as §1, §2

[4] = molecular target: T4, pGBT DPa 1-292: GAL4 DNA-binding domain fusion of AtDPa 1-292 (Arabidopsis thaliana); assay: yeast two-hybrid, growth on His- minimal medium; legend: -, no interaction
T4 construct: its construction is not described

[5] = molecular target: T1, pGBTE2Fb-Rb: GAL4 DNA-binding domain …; assay: as above
[6] = molecular target: T2, pGBTE2Fa226-356: GAL4 DNA-binding …; assay: as above
[7] = molecular target: T5, HA-tagged wild-type AtE2Fb, in vitro translated (Arabidopsis, UniProt Q9FV71 1-469); assay: co-immunoprecipitation (anti-c-myc) of in vitro co-translated tagged proteins, SDS-PAGE autoradiography
T5 construct: wild-type (whole) protein; also called HA-AtE2Fb; E2F3
T5 sequence (Q9FV71 1-469, tags or fused parts left off): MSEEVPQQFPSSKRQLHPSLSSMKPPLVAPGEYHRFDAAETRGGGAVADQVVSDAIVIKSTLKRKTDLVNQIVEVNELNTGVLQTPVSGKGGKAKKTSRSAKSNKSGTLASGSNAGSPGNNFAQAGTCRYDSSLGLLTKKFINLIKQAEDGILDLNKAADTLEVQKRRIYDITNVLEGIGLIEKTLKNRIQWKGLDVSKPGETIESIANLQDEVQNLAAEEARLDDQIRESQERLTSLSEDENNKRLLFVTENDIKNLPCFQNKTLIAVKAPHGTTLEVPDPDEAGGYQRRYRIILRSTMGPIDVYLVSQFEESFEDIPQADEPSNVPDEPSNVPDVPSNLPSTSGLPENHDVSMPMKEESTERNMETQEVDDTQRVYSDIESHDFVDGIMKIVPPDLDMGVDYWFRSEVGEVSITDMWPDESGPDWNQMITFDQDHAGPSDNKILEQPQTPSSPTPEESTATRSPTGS
Protocol: In vitro transcription and translation experiments were performed using the TNT T7-coupled wheat germ extract kit (Promega) primed with appropriate plasmids for 90 min at 30° C. For immunoprecipitation, 10 μl of the total in vitro translated extract (50 μl) was diluted at 1:5 in Nonidet P40 buffer (50 mM Tris, pH 7.4, 150 mM NaCl, 1% Nonidet P40, 1 mM phenylmethylsulfonyl fluoride, 10 μg/ml leupeptin/aprotinin/pepstatin) and incubated for 2 h at 4° C. with anti-c-myc (9E10; BabCo) or anti-HA (16B12; BabCo) antibodies. Protein-A-Sepharose (40 μl 25% (v/v)) was added and incubated for 1 h at 4° C., then the beads were washed four times with Nonidet P40 buffer. Immune complexes were eluted with 10 μl […] sodium dodecyl sulfate (SDS) sample buffer and analyzed by 10% or 15% SDS-PAGE and by autoradiography.
Similar results were obtained by two-hybrid analysis (see Table 5 of Example 12). To test whether the structural requirements for heterodimerization of the AtDPs were similar to those of their animal homologs, several deletion mutants of AtDPa and AtDPb were constructed (for a schematic illustration, see FIGS. 52 and 53), tagged with the c-myc epitope (FIGS. 54 and 55, panels A). The interactions between the mutant AtDPs and AtE2Fb were analyzed in immunoprecipitation experiments with the specific anti-HA or anti-c-myc antibodies ([…], panels B and C, respectively). […]

Binder	binding result [1]	binding result [2]	binding result [3]	binding result [5]	binding result [6]	also measured
GAL4 transactivation domain fusion of AtDPa 42-292 (prey in pAD-GAL424) (other, not shown: large carriers) EKKGQSRTSGGGLRQFSVMVCQKLEAKKITTYKEVADEIISDFATIKQNAEKPLNENEYNEKNIRRRVYDALNVFMALDIIARDKKEIRWKGLPITCKKDVEEVKMDRNKVMSSVQKKAAFLKELREKVSSLESLMSRNQEMVVKTQGPAEGFTLPFILLETNPHAVVEIEISEDMQLVHLDFNSTPFSVHDDAYILKLMQEQKQEQNRVSSSSSTHHQSQHSSAHSSSSSCIASGTSGPVCWNSGSIDTR	binds	binds				
GAL4 transactivation domain fusion of AtDPa 121-292 (prey in pAD-GAL424) (other, not shown: large carriers) IIARDKKEIRWKGLPITCKKDVEEVKMDRNKVMSSVQKKAAFLKELREKVSSLESLMSRNQEMVVKTQGPAEGFTLPFILLETNPHAVVEIEISEDMQLVHLDFNSTPFSVHDDAYILKLMQEQKQEQNRVSSSSSTHHQSQHSSAHSSSSSCIASGTSGPVCWNSGSIDTR	binds	binds				
GAL4 transactivation domain fusion of AtDPb 182-263 (prey in pAD-GAL424) (other, not shown: large carriers) GLPRTSLSDIEELKNERLSLRNRIEKKTAYSQELEEQYVGLQNLIQRNEHLYSSGNAPSGGVALPFILVQTRPHATVEVEI	binds	binds	no binding			
GAL4 transactivation domain fusion of AtDPb 182-385 (prey in pAD-GAL424) (other, not shown: large carriers) GLPRTSLSDIEELKNERLSLRNRIEKKTAYSQELEEQYVGLQNLIQRNEHLYSSGNAPSGGVALPFILVQTRPHATVEVEISEDMQLVHFDFNSTPFELHDDNFVLKTMKFCDQPPQQPNGRNNSQLVCHNFTPENPNKGPSTGPTPQLDMYETHLQSQQHQQHSQLQIIPMPETNNVTSSADTAPVKSPSLPGIMNSSMKPEN	binds	binds				
GAL4 transactivation domain fusion of AtDPa 1-292 (prey in pAD-GAL424) (other, not shown: large carriers, also called full-length AtDPa prey) MSMEMELFVTPEKQRQHPSVSVEKTPVRRKLIVDDDSEIGSEKKGQSRTSGGGLRQFSVMVCQKLEAKKITTYKEVADEIISDFATIKQNAEKPLNENEYNEKNIRRRVYDALNVFMALDIIARDKKEIRWKGLPITCKKDVEEVKMDRNKVMSSVQKKAAFLKELREKVSSLESLMSRNQEMVVKTQGPAEGFTLPFILLETNPHAVVEIEISEDMQLVHLDFNSTPFSVHDDAYILKLMQEQKQEQNRVSSSSSTHHQSQHSSAHSSSSSCIASGTSGPVCWNSGSIDTR	binds					binding result [4]: no binding
GAL4 transactivation domain fusion of AtDPa 1-142 (prey in pAD-GAL424) (other, not shown: large carriers) MSMEMELFVTPEKQRQHPSVSVEKTPVRRKLIVDDDSEIGSEKKGQSRTSGGGLRQFSVMVCQKLEAKKITTYKEVADEIISDFATIKQNAEKPLNENEYNEKNIRRRVYDALNVFMALDIIARDKKEIRWKGLPITCKKDV			no binding	no binding	no binding	
GAL4 transactivation domain fusion of AtDPa 121-213 (prey in pAD-GAL424) (other, not shown: large carriers) IIARDKKEIRWKGLPITCKKDVEEVKMDRNKVMSSVQKKAAFLKELREKVSSLESLMSRNQEMVVKTQGPAEGFTLPFILLETNPHAVVEIEI			no binding	no binding	no binding	
GAL4 transactivation domain fusion of AtDPa 172-292 (prey in pAD-GAL424) (other, not shown: large carriers) SLESLMSRNQEMVVKTQGPAEGFTLPFILLETNPHAVVEIEISEDMQLVHLDFNSTPFSVHDDAYILKLMQEQKQEQNRVSSSSSTHHQSQHSSAHSSSSSCIASGTSGPVCWNSGSIDTR			no binding	no binding	no binding	
GAL4 transactivation domain fusion of AtDPb 1-193 (prey in pAD-GAL424) (other, not shown: large carriers) MTTTGSNSNHNHHESNNNNNNPSTRSWGTAVSGQSVSTSGSMGSPSSRSEQTITVVTSTSDTTFQRLNNLDIQGDDAGSQGASGVKKKKRGQRAAGPDKTGRGLRQFSMKVCEKVESKGRTTYNEVADELVAEFALPNNDGTSPDQQQYDEKNIRRRVYDALNVLMAMDIISKDKKEIQWRGLPRTSLSDIEE				no binding	no binding	
GAL4 transactivation domain fusion of AtDPa 42-142 (prey in pAD-GAL424) (other, not shown: large carriers) EKKGQSRTSGGGLRQFSVMVCQKLEAKKITTYKEVADEIISDFATIKQNAEKPLNENEYNEKNIRRRVYDALNVFMALDIIARDKKEIRWKGLPITCKKDV			no binding	no binding	no binding	
c-myc-tagged AtDPa 1-142, in vitro translated (other, also called c-myc-AtDPa 1-142) EQKLISEEDLEQKLISEEDLMSMEMELFVTPEKQRQHPSVSVEKTPVRRKLIVDDDSEIGSEKKGQSRTSGGGLRQFSVMVCQKLEAKKITTYKEVADEIISDFATIKQNAEKPLNENEYNEKNIRRRVYDALNVFMALDIIARDKKEIRWKGLPITCKKDV						binding result [7]: no binding
c-myc-tagged AtDPb 1-193, in vitro translated (other, also called c-myc-AtDPb 1-193) EQKLISEEDLEQKLISEEDLMTTTGSNSNHNHHESNNNNNNPSTRSWGTAVSGQSVSTSGSMGSPSSRSEQTITVVTSTSDTTFQRLNNLDIQGDDAGSQGASGVKKKKRGQRAAGPDKTGRGLRQFSMKVCEKVESKGRTTYNEVADELVAEFALPNNDGTSPDQQQYDEKNIRRRVYDALNVLMAMDIISKDKKEIQWRGLPRTSLSDIEE						binding result [7]: no binding
